In patent US20260008815A1, “CYCLIC PEPTIDE OR SALT THEREOF, AND USES THEREOF” (FUJIFILM Corporation, priority 2023, published 2026):
Bridge positions count the residues as written; N and C are the ends. Ends that are not written are not given here. COCH2 = acetyl group that carries the bridge

molecular target: T1, Recombinant Human FGFR2 alpha (IIIc) Fc Chimera Protein, CF (R&D systems, 712-FR-050) (human, UniProt P21802 22-377); assay: ELISA on plate-bound FGFR2-Fc
T1 construct: bought; not shown: Fc part of the chimera
T1 sequence (P21802 22-377, change not shown): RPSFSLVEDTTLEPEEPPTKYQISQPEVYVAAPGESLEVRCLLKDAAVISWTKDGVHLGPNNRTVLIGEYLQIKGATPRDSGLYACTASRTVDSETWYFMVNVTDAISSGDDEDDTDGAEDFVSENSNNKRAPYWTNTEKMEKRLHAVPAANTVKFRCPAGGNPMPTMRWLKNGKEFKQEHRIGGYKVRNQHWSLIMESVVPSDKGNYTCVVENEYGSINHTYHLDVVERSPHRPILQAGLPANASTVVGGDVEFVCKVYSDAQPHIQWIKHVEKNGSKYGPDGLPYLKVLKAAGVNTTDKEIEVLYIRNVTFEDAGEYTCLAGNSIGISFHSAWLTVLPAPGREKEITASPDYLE
Description: First, 5 ng of Recombinant Human FGFR2 alpha (IIIc) Fc Chimera Protein (R&D systems, 712-FR-050) was immobilized in each well of a 96-well plate, and blocked with Pierce Protein-Free (PBS) Blocking Buffer (Thermo, 37572), and a peptide diluted with Can Get Signal Immunoreaction Enhancer Solution I (TOYOBO, NKB-101) was then added and reacted at room temperature for 3 hours. After washing with 0.05% Tween 20-containing phosphate buffered saline (PBS), an anti-Myc antibody (Cell Signaling, 14038S) diluted with Can Get Signal Immunoreaction Enhancer Solution II (TOYOBO, NKB-101) was added and reacted at room temperature for 2 hours. After washing with 0.05% Tween 20-containing PBS, SuperSignal ELISA Femto Substrate (Thermo, 37075) was added, and the luminescence amount was measured. The dose-response relationship was calculated from using the difference between the luminescence amount in the well in which FGFR was immobilized and the luminescence amount in the well in which FGFR was not immobilized, and the concentration of the peptide at the time of reaction, and the binding affinity to FGFR was evaluated according to the following evaluation criteria. The evaluation result preferably satisfies the evaluation criteria A, B, or C.

Binder | ELISA luminescence signal at 10 nmol/L peptide, relative to SEQ ID NO: 47 (=1) [ratio]
YCEGNYLDPEQYQYFIYFK(COCH2)Y (thioether 2-19) [cyclic peptide SEQ ID NO: 166] | ≥ 0.7
YCELNYLDPEQYQYFIYFK(COCH2)Y (thioether 2-19) [cyclic peptide SEQ ID NO: 168] | ≥ 0.7
YCEVNYLDPEQYQYFIYFK(COCH2)Y (thioether 2-19) [cyclic peptide SEQ ID NO: 170] | ≥ 0.7
YCEWNYLDPEQYQYFIYFK(COCH2)Y (thioether 2-19 (inferred)) [cyclic peptide SEQ ID NO: 173] | ≥ 0.7
YCENNYLDPEQYQYFIYFK(COCH2)Y (thioether 2-19 (inferred)) [cyclic peptide SEQ ID NO: 174] | ≥ 0.7
YCEINYLDPEQYQYFIYFK(COCH2)Y (thioether 2-19) [cyclic peptide SEQ ID NO: 169] | ≥ 0.7
YCEPNYLDPEQYQYFIYFK(COCH2)Y (thioether 2-19) [cyclic peptide SEQ ID NO: 167] | ≥ 0.7
YCEYNYLDPEQYQYFIYFK(COCH2)Y (thioether 2-19 (inferred)) [cyclic peptide SEQ ID NO: 172] | ≥ 0.7
YCEFNYLDPEQYQYFIYFK(COCH2)Y (thioether 2-19 (inferred)) [cyclic peptide SEQ ID NO: 171] | 0.5 to 0.7

Results, then the binder that gave them:

ELISA luminescence signal at 10 nmol/L peptide, relative to SEQ ID NO: 47 (=1) [ratio] | Binder
≥ 0.7 | YCERNYLDPEQYQYFIYFK(COCH2)Y (thioether 2-19 (inferred)) [cyclic peptide SEQ ID NO: 179]
0.5 to 0.7 | YCEEGYLDPEQYQYFIYFK(COCH2)Y (thioether 2-19 (inferred)) [cyclic peptide SEQ ID NO: 181]
≥ 0.7 | YCETNYLDPEQYQYFIYFK(COCH2)Y (thioether 2-19 (inferred)) [cyclic peptide SEQ ID NO: 177]
0.1 to 0.5 | YCEEQYLDPEQYQYFIYFK(COCH2)Y (thioether 2-19 (inferred)) [cyclic peptide SEQ ID NO: 183]
0.1 to 0.5 | YCEEWYLDPEQYQYFIYFK(COCH2)Y (thioether 2-19 (inferred)) [cyclic peptide SEQ ID NO: 182]
≥ 0.7 | YCEHNYLDPEQYQYFIYFK(COCH2)Y (thioether 2-19 (inferred)) [cyclic peptide SEQ ID NO: 180]
≥ 0.7 | YCEDNYLDPEQYQYFIYFK(COCH2)Y (thioether 2-19 (inferred)) [cyclic peptide SEQ ID NO: 178]
≥ 0.7 | YCESNYLDPEQYQYFIYFK(COCH2)Y (thioether 2-19 (inferred)) [cyclic peptide SEQ ID NO: 176]
≥ 0.7 | YCEQNYLDPEQYQYFIYFK(COCH2)Y (thioether 2-19 (inferred)) [cyclic peptide SEQ ID NO: 175]
